In the Human Domainome abundance scans (Beltran et al. 2025):
± gives the uncertainty stated by the source.

B1: Dystrobrevin alpha, residues 235 to 294; numbered along this chain, Q9Y4J8 (parent)
chain: ENVFHPVECSYCHSESMMGFRYRCQQCHNYQLCQDCFWRGHAGGSHSNQHQMKEYTSWKS
B2: Myocardin, residues 363 to 406; numbered along this chain, Q8IZQ8 (parent)
chain: KPGPLPPNLDDLKVSELRQQLRIRGLPVSGTKTALMDRLRPFQD

Variants of: B1
Experiment: abundance fitness (aPCA) (normalised: wild type 0, dead -1); higher = more abundant; growth selection in yeast, the domain comes from the species named
Conditions: Homo sapiens

Abundance fitness, by site and new letter:
S60: V 0.034 ± 0.18; Y -0.207 ± 0.14

Variants of: B2
Experiment: as above
Conditions: Homo sapiens

Abundance fitness of substitutions, site by site:
R18: Y -0.744 ± 0.31; I -0.133 ± 0.47; E -0.177 ± 0.15; H -0.321 ± 0.24; F -0.481 ± 0.16; W -0.861 ± 0.19; P -0.727 ± 0.15; Q -0.179 ± 0.11; L -0.44 ± 0.091; A -0.366 ± 0.074; M -0.503 ± 0.11; T -0.388 ± 0.1; C 0.116 ± 0.26; G -0.888 ± 0.12; V -0.312 ± 0.076; K 0.032 ± 0.1
P7: K 0.464 ± 0.083; T 0.018 ± 0.15; L -0.001 ± 0.07; Q 0.266 ± 0.073; A 0.12 ± 0.081; H 0.188 ± 0.091; I 0.107 ± 0.16; D 0.052 ± 0.13; E 0.253 ± 0.071; N 0.346 ± 0.14; S -0.009 ± 0.087; M 0.239 ± 0.14; V 0.227 ± 0.066; W -0.414 ± 0.11; Y -0.085 ± 0.31; G 0.142 ± 0.057
G3: R 0.016 ± 0.063; K 0.245 ± 0.12; T 0.099 ± 0.099; H 0.059 ± 0.12; V 0.102 ± 0.088; C -0.792 ± 0.23; L -0.025 ± 0.08; A 0.126 ± 0.088; W -0.607 ± 0.083; D -0.228 ± 0.12; M 0.146 ± 0.076; Q 0.295 ± 0.099; S -0.077 ± 0.088; Y -0.067 ± 0.13; P -0.265 ± 0.13
P4: T 0.329 ± 0.099; M 0.392 ± 0.14; S 0.078 ± 0.079; R -0.059 ± 0.08; Q 0.136 ± 0.074; H 0.093 ± 0.076; Y 0.368 ± 0.077; A 0.069 ± 0.075; F 0.755 ± 0.26; L 0.102 ± 0.076; E 0.107 ± 0.069; C -0.079 ± 0.13; G -0.229 ± 0.067; K 0.371 ± 0.079; V 0.09 ± 0.07; N 0.463 ± 0.12; D 0.276 ± 0.08
L5: R -0.448 ± 0.062; N -0.276 ± 0.32; W -0.984 ± 0.13; T -0.302 ± 0.087; M -0.139 ± 0.15; D -0.245 ± 0.12; I 0.011 ± 0.18; H -0.311 ± 0.33; C -0.044 ± 0.1; K -0.514 ± 0.19; F -0.307 ± 0.16; S -0.341 ± 0.12; E -0.13 ± 0.11; G -0.283 ± 0.059; Y -0.204 ± 0.18; Q -0.131 ± 0.1
D10: E 0.287 ± 0.071; N -0.078 ± 0.17; A 0.178 ± 0.081; V 0.076 ± 0.068; T -0.178 ± 0.29; G 0.311 ± 0.058; W 0.104 ± 0.082; R -0.147 ± 0.065; P -0.552 ± 0.16; S -0.257 ± 0.075; C 0.245 ± 0.099; Y 0.026 ± 0.32; K -0.076 ± 0.11; H -0.315 ± 0.13; Q -0.163 ± 0.14; F -0.582 ± 0.36
Q19: T -0.439 ± 0.17; H -0.412 ± 0.41; L -0.198 ± 0.088; W -0.717 ± 0.18; V -0.544 ± 0.096; Y -0.124 ± 0.14; A -0.194 ± 0.073; M -0.206 ± 0.18; D -0.05 ± 0.14; E 0.029 ± 0.087; C -0.464 ± 0.093; G -0.368 ± 0.066; S -0.261 ± 0.09; P -0.761 ± 0.13
L17: G -0.649 ± 0.064; Y -1.02 ± 0.22; N -1 ± 0.35; C -1.31 ± 0.36; H -0.878 ± 0.31; I -0.6 ± 0.44; T -0.779 ± 0.13; E -0.454 ± 0.09; R -0.606 ± 0.071; D -0.86 ± 0.42; M -0.265 ± 0.076; A -0.583 ± 0.081; V -0.606 ± 0.084; K -0.345 ± 0.12; W -0.798 ± 0.099
D11: T 0.135 ± 0.1; K 0.083 ± 0.066; F -0.175 ± 0.16; Y -0.183 ± 0.14; M 0.063 ± 0.11; A 0.085 ± 0.063; P -0.714 ± 0.11; N -0.004 ± 0.12; Q -0.007 ± 0.075; R -0.135 ± 0.057; E -0.082 ± 0.093; S 0.27 ± 0.082; L 0.009 ± 0.072; G -0.074 ± 0.055; W -0.441 ± 0.093; C -0.272 ± 0.26; V 0 ± 0.087
V14: A -0.465 ± 0.14; S -0.486 ± 0.15; L -0.16 ± 0.077; R -1.02 ± 0.11; D -0.702 ± 0.33; P -0.247 ± 0.16; G -0.757 ± 0.1; F -0.939 ± 0.43; W -1.02 ± 0.13; H -0.396 ± 0.19; C -0.603 ± 0.19; K -0.157 ± 0.1; T -0.222 ± 0.091; M -0.116 ± 0.11; Q -0.994 ± 0.26
K1: G -0.47 ± 0.073; C -0.286 ± 0.17; T -0.521 ± 0.13; R -1 ± 0.12; Y -0.608 ± 0.17; S -0.672 ± 0.084; L -0.666 ± 0.31; V -0.643 ± 0.1; A -0.671 ± 0.11; I 0.021 ± 0.11; N 0.11 ± 0.17; M -0.835 ± 0.25; W -0.98 ± 0.18; D -0.268 ± 0.098
L12: D -0.429 ± 0.09; N -0.507 ± 0.21; Y 0.298 ± 0.16; Q -0.506 ± 0.34; T -0.401 ± 0.1; R -0.394 ± 0.064; F 0.053 ± 0.25; S -0.274 ± 0.12; G -0.638 ± 0.069; K -0.284 ± 0.35; E -0.369 ± 0.088; W -0.315 ± 0.085; V -0.497 ± 0.068; P -0.899 ± 0.21; C -0.499 ± 0.13; H -0.614 ± 0.14; A -0.425 ± 0.061
P2: Q 0.374 ± 0.073; M 0.387 ± 0.096; F 0.328 ± 0.24; W -0.231 ± 0.093; A 0.25 ± 0.061; T -0.016 ± 0.13; H -0.093 ± 0.11; R 0.085 ± 0.071; N -0.011 ± 0.13; E 0.401 ± 0.094; V 0.39 ± 0.11; K 0.284 ± 0.095; Y 0.136 ± 0.35; I 0.466 ± 0.087; S 0.184 ± 0.07; D 0.407 ± 0.18
R22: H -0.624 ± 0.39; M -0.619 ± 0.44; Q -0.928 ± 0.16; N -0.371 ± 0.11; S -0.21 ± 0.11; W -0.771 ± 0.12; K 0.063 ± 0.12; G -0.531 ± 0.07; V -0.557 ± 0.11; T -0.258 ± 0.12; L -0.374 ± 0.15; P -0.818 ± 0.14; I -0.384 ± 0.17; A -0.138 ± 0.074; C -0.194 ± 0.34
P6: A -0.02 ± 0.094; E -0.131 ± 0.11; T -0.197 ± 0.14; S -0.095 ± 0.078; V -0.133 ± 0.065; F -0.356 ± 0.42; I -0.361 ± 0.12; M -0.135 ± 0.15; Q -0.267 ± 0.073; L -0.26 ± 0.091; W -0.484 ± 0.085; G -0.153 ± 0.057; N -0.34 ± 0.16; D -0.195 ± 0.12
E16: V -0.481 ± 0.079; Y -0.323 ± 0.17; T -0.515 ± 0.12; A -0.295 ± 0.11; P -0.939 ± 0.2; M -0.615 ± 0.078; H -0.983 ± 0.18; K -0.842 ± 0.28; R -0.827 ± 0.12; D -0.27 ± 0.14; L -0.826 ± 0.12; S -0.47 ± 0.072; W -0.613 ± 0.15
L9: H -0.542 ± 0.15; C -0.371 ± 0.19; G -0.491 ± 0.061; E -0.807 ± 0.1; P -0.513 ± 0.12; V -0.024 ± 0.072; N -0.871 ± 0.3; D -0.873 ± 0.15; W -0.615 ± 0.1; Q -0.278 ± 0.083; K -0.741 ± 0.19; A -0.876 ± 0.12; I -0.289 ± 0.088; M -0.543 ± 0.13; R -0.524 ± 0.058; T -0.731 ± 0.12; S -0.605 ± 0.14
I23: A 0.091 ± 0.062; N -0.45 ± 0.26; C -0.315 ± 0.47; K -0.153 ± 0.084; F -0.378 ± 0.26; G -0.24 ± 0.06; L -0.021 ± 0.099; E 0.043 ± 0.12
Q20: W -0.767 ± 0.095; R -0.602 ± 0.11; A 0.004 ± 0.059; I 0.05 ± 0.25; P -0.785 ± 0.16; Y -0.38 ± 0.13; V -0.57 ± 0.08; C -0.395 ± 0.11; G -0.697 ± 0.073; H 0.073 ± 0.11; D -0.608 ± 0.1; L 0.073 ± 0.075; K -0.314 ± 0.1; F -0.093 ± 0.16; S -0.711 ± 0.15
L21: A -0.037 ± 0.061; S -0.94 ± 0.15; N -0.244 ± 0.26; W -1.02 ± 0.13; Q -0.517 ± 0.091; V -0.432 ± 0.1; M -0.321 ± 0.12; G -0.68 ± 0.069; E -0.42 ± 0.096; K -0.296 ± 0.15; C -0.271 ± 0.17; P -0.523 ± 0.12; D -0.361 ± 0.11
N8: G -0.623 ± 0.064; E -0.232 ± 0.072; W -0.915 ± 0.16; L -0.35 ± 0.06; H -0.373 ± 0.12; M -0.274 ± 0.17; A -0.187 ± 0.081; V -0.048 ± 0.063; P -0.541 ± 0.099; R -0.116 ± 0.058; I -0.408 ± 0.23; Q -0.154 ± 0.12; D -0.246 ± 0.068; S -0.444 ± 0.085; C -0.342 ± 0.14
S15: T 0.071 ± 0.24; G -0.122 ± 0.056; Y -0.274 ± 0.13; D 0.015 ± 0.079; Q -0.261 ± 0.076; P -0.346 ± 0.077; M -0.245 ± 0.12; V -0.243 ± 0.085; C -0.168 ± 0.098; H 0.023 ± 0.18; L -0.688 ± 0.17; I -0.23 ± 0.11; E 0.171 ± 0.14; A 0.113 ± 0.068; N -0.288 ± 0.23; F -0.22 ± 0.084; R -0.22 ± 0.065; W -0.163 ± 0.085
